Reference: patent publication US8871276B2, “Beta-casein assemblies for mucosal delivery of therapeutic bioactive agents” (Technion Research and Development Foundation Ltd., priority 2008, dated 2014)
Values joined by “and” are separate entries in the source; they are usually repeats but may differ in a detail not shown here. Equal values may be shown once. Values belong to the molecule of their own block, whether it stands above or below them.

Key:
Assay type in all cases: physicochemical
[1] = Light microscopy (Nomarski DIC) / visual solubility observation; settings: hepes buffer, neutral pH, with or without β-casein
Protocol: An Olympus BX51 light microscope was operated at Nomarski differential interference contrast (DIC) optics. A 5 μL drop was placed on a glass slide, covered with a cover slide. Images were recorded digitally with an Olympus DP71 digital camera connected to the light microscope. Image processing was performed using Cell A (Olympus).
Bovine β-casein (>90%; Sigma-Aldrich) was dissolved in pH 7.0 hepes buffer containing 200 mM hepes (MP Biomedicals), 10 mM MgCl2 (Sigma-Aldrich), 20 mM EGTA (Sigma-Aldrich) and 10 mM NaCl (Loba Chemie), and was placed over-night at 4° C. under stirring. The protein solutions were prepared at concentrations ranging from 0.5 to 2 wt % (0.21 to 0.83 mM respectively), and were filtered through a porous membrane of 0.45 μm to avoid large protein aggregates. […] Stirring continued for 30 minutes in room temperature. […] The specimens remained stable i.e., no precipitation was observed, for at least 3 weeks at 4° C.

[2] = Water content by Karl Fischer Coulometer
Protocol: In this experiment the water content of celocoxib (CXB), beta-casein (β-CN) 1% nanocarriers, Sigma beta-casein (β-CN, Sigma material), and CXB-loaded β-CN 1% nanocarriers was measured by Metrohm 831 Karl Fischer Coulometer.
In an attempt to reduce the water content, an additional lypholization cycle was performed for the empty and CXB-loaded β-CN 1% nanocarriers. After this second lyophilization cycle water content was measured by Metrohm 831 Karl Fischer Coulometer.
Specifically, the first cycle lasted for 24 hours (data is presented in tables 5-7) then all samples were subjected to an additional cycle of lyophilization that lasted for 48 hours (total of 72 hours). Tables 8 and 9 present the results of samples that were subjected to 24, […], and 72 hours of lyophilization.

[3] = Small angle X-ray scattering (SAXS) of micelles; settings: 1 wt % β-casein, empty or loaded 1:8 protein:celecoxib, pH ~7
Protocol: The small angle X-ray scattering equipment consisted of a SAXSess camera (Anton-Paar, Graz, Austria) connected to an X-ray generator (Philips, PW 1730/10) operating at 40 kV and 50 mA with a sealed-tube Cu anode. A Gael mirror was used to convert the divergent polychromatic X-ray beam into a focused line-shaped beam of Cu Kα radiation (λ=0.154 nm). The 2D scattering pattern was recorded by a PI-SCX fused fiber optic taper CCD camera from Princeton Instruments, which is a division of Roper Scientific, Inc. (Trenton, N.J., USA). The used CCD detector features a 2084×2084 array with 24×24 μm pixel size (chip size: 50×50 mm). The CCD was operated at −30° C. with 10° C. water-assisted cooling to reduce the thermally generated charge. Cosmic ray correction and background subtraction were performed on the 2D image before further data processing. The 2D image was integrated into the one-dimensional scattering function within a band of 10 mm. The measurement time was 30 min for each scattering curve (6 images of 5 minutes were taken to assist the cosmic ray correction).
The molecular weight of the scattering aggregates were calculated according to Eq. 1:
[formula] where M is the molecular weight, dΣ(0)/dΩ (cm^−1) the forward scattering intensity at q=0, c (g/cm^3) the β-casein concentration, NA the Avogadro number, and ΔρM (cm/g) the scattering length difference per mass, given by: ΔρM=Δρ ν (2)
The scattering length difference Δρ (cm^−2) was calculated using the known chemical composition of the protein and the solvent, and ν (cm^3/g), the specific volume of the protein in the solution that was calculated via density measurement of the solvent and the solution. The micelle aggregation number was then calculated by dividing the molecular weight of the micelles determined with Eq. 1, by the molecular weight of a single protein molecule.
For a particle of arbitrary shape with a scattering density difference of Δρ(r), the pair distance distribution function p(r) (PDDF) is given by: p(r)=r^2Δ ρ^2(r) (3) where Δ ρ^2(r) is the convolution square of Δρ(r) averaged for all directions in space. The PDDF is related to the scattered intensity l(q) by a Fourier transformation, and it enables the determination of the overall shape and size of the scattering objects.
[formula] λ is the wavelength of the incident radiation and θ is the angle between the scattered and incident beam. The function ƒ(r)=p(r)/r (6) is useful to identify flat plate-like particles, although it has no direct physical meaning. For lamellae, this function starts with a linearly increasing part and becomes almost flat when r is equal to the thickness of the lamella. For flat particles with a finite base area, the outer part decreases linearly because of boundary losses. The thickness of the lamella can then be read from the transition point.
The structural characteristics of the micelles in the two pH environments were studied by cryo-TEM and SAXS (Small Angle X-ray Scattering). Cryo-TEM was used to determine the shape of the micelles and to estimate their dimensions between 4 and 40° C. This information was further used to accurately calculate the micelles' dimensions from the SAXS data, and to study how the size and shape are affected by temperature. SAXS measurements also provided the critical micelle concentration (CMC) and the micelle aggregation numbers as a function of temperature. Experiments were performed in the concentration range of 0.1-40 mg/mL protein, at low pH (between 2.1 and 2.6) in dilute lactic acid solution (6 wt %) or HCl and in aqueous solutions at pH 6.7-7.3 in absence of salts or the presence of up to 0.1M NaCl.
SAXS measurements were used to determine the shape and dimensions of the micelles at low pH more precisely, and to evaluate the micelle molecular weight (i.e., the aggregation number). The scattering curves of 20 mg/mL β-casein in lactic acid solution (pH 2.6, IS 0.0022) at different temperatures are shown in FIG. 3a. […]

[4] = Small angle X-ray scattering (SAXS) of micelles; settings: 1 wt % β-casein, empty or loaded 1:8 protein:celecoxib, pH ~7; remark: listed apart in the source

Solubility in aqueous buffer (observation) [1]: poor solubility
Molecule: Cc1ccc(-c2cc(C(F)(F)F)nn2-c2ccc(S(N)(=O)=O)cc2)cc1 [Celecoxib, celecoxib, reference compound]

Solubility in aqueous buffer (observation) [1]: does not dissolve in buffer at all
Molecule: CC(C)CCC[C@@H](C)[C@H]1CC[C@H]2[C@@H]3CC=C4C[C@@H](O)CC[C@]4(C)[C@H]3CC[C@]12C [Cholesterol, cholesterol]

Second part, the molecule before the results:

B1: β-CN: Sigma beta-casein raw material powder (protein, UniProt P02666 16-224, looked up)
Beta-casein: RELEELNVPGEIVESLSSSEESITRINKKIEKFQSEEQQQTEDELQDKIHPFAQTQSLVYPFPGPIPNSLPQNIPPLTQTPVVVPPFLQPEVMGVSKVKEAMAPKHKEMPFPKYPVEPFTESQSLTLTDVENLHLPLPLLQSWMHQPHQPLPPTVMFPPQSVLSLSQSKVLPVPQKAVPYPQRDMPIQAFLLYQEPVLGPVRGPFPIIV
Average water content of lyophilized (dried) powders ([2]; data of Tables 5-7): more than 10 % w/w
% water, AVR ([2]; β-CN Sigma material, lyophilization time none, average): 13.0%
% water ([2]; β-CN Sigma material, single sample): 15.0% and 9.4% and 14.7%

B2: β-casein dried: empty β-casein micelles after lyophilization and re-suspension (protein, UniProt P02666 16-224, looked up)
Beta-casein: B1 Beta-casein
modifications: lyophilized micelles
notes: empty β-casein micelles after lyophilization and re-suspension
Rg (from Guinier apr.) [3]: 8.1 nm
V, from a, b [3]: 2841 nm^3
Density [4]: 1.23 g/mL
